Values quoted from earlier work in paper PMC5325457.

Biological target: Mms2 (Homo sapiens) (UniProt Q15819)
Sequence of UniProt Q15819 (Q15819 2-145): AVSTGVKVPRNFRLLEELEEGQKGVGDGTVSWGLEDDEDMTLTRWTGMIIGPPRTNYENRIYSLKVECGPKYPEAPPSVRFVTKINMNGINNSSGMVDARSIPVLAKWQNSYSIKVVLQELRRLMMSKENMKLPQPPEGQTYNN

With Ubc13 (from UniProt P61088) as the substance, how does the Kd read?
The Kd was 49 nM.
